# Assay results from patent publication US20170014494A1.
# Biological target: SERCA2a wild type (WT), expressed from a plasmid in HEK293 cells
# Assay: cell-based or functional assay
substance,measurement,value
flag-tagged SUMO1 (from UniProt P63165 2-97),EC50 (Ca2+) of ATPase activity of WT SERCA2a with co-expression of SUMO1,110 nM
